T1: RNaseB (UniProt P61823 27-150)
T1 construct: also called unrelated control protein RNaseB
T1 sequence (looked up): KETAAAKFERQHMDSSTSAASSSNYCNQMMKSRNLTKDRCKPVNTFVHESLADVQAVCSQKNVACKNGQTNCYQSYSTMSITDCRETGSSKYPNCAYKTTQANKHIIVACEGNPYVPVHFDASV

T2: extracellular domain of human CD154 (human, UniProt P29965 47-261)
T2 construct: extracellular domain; Colony screening: conjugate with digoxigenin
T2 sequence (looked up): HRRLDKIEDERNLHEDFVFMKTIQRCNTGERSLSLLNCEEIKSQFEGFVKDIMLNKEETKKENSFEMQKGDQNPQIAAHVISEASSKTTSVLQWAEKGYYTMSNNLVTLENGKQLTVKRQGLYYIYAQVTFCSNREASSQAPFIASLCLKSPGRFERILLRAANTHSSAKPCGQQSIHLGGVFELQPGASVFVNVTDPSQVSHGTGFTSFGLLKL

B1: BBP mutein Fer-N22 (designed binder)
chain: DVYHDGACPEVKPVDNFDWSQYHGKWWEVAKYPNGGESPGKCGWAEYTPEGKSVKVSNYHVIKKRERFIEGTAYPVGDSKIGKICHSLTWSGLTKENVFNVLSTDNKNYIIGYYCKYKERKKGHGDFVWVLSRSMVLTGEAKTAVENYLIGSPVVDSQKLVYSDFSEAACKVNN
notes: Tested as expressed from pBBP47: C-terminal T7 tag followed by Strep-tag II
B2: BBP mutein CD154-13-10-1 (designed binder)
chain: DVYHDGACPEVKPVDNFDWSQYHGKWWEVAKYPNQIEQGGKCGWAEYTPEGKSVKVSNYHVIYASEDFIEGTAYPVGDSKIGKIYHSLTSSGVTKENVFNVLSTDNKNYIIGYYCGYREAPKGHMDFVWVLSRSMVLTGEAKTAVENYLIGSPVVDSQKLVYSDFSEAACKVNN
B3: BBP mutein CD4-7B4-K23 (designed binder)
chain: DVYHDGACPEVKPVDNFDWSQYHGKWWEVAKYPNGNELRGKCGWAEYTPEGKSVKVSNYHVINTSEGFIEGTAYPVGDSKIGKIYHSLTNTGMTKENVFNVLSTDNKNYIIGYYCSWEVSKGHHDFVWVLSRSMVLTGEAKTAVENYLIGSPVVDSQKLVYSDFSEAACKVNNS
B4: BBP mutein CD4-2G3-H22 (designed binder)
chain: DVYHDGACPEVKPVDNFDWSQYHGKWWEVAKYPNMTEVKGKCGWAEYTPEGKSVKVSNYHVIREKEWFIEGTAYPVGDSKIGKIYHSLTISGLTKENVFNVLSTDDKNYIIGYYCKYMELWKGHRDFVWVLSRSMVLTGEAKTAVENYLIGSPVVDSQKLVYSDFSEAACKVNN
B5: BBP mutein Fer-I21 (designed binder)
chain: DVYHDGACPEVKPVDNFDWSQYHGKWWEVAKYPNQKEKWGKCGWAEYTPEGKSVKVSNYHVIKRPERFIEGTAYPVGDSKIGKIYHSLTRLGKTKENVFNVLSTDNKNYIIGYYCLYPEGWKGHKDFVWVLSRSMVLTGEAKTAVENYLIGSPVVDSQKLVYSDFSEAACKVNN
notes: as for B1
B6: BBP mutein CD4-2C3-N22 (designed binder)
chain: DVYHDGACPEVKPVDNFDWSQYHGKWWEVAKYPNAKESPGKCGWAEYTPEGKSVKVSNYHVIQRLEGFIEGTAYPVGDSKIGKIYHSLTTWGLTKENVFNVLSTDNKNYIIGYYCGYVEKSKGHPDFVWVLSRSMVLTGEAKTAVENYLIGSPVVDSQKLVYSDFSEAACKVNN
B7: BBP mutein CD4-7B4-N14 (designed binder)
chain: DVYHDGACPEVKPVDNFDWSQYHGKWWEVAKYPNRAEIGGKCGWAEYTPEGKSVKVSNYHVIKQWEKFIEGTAYPVGDSKIGKIYHSLTGTGSTKENVFNVLSTDNKNYIIGYYCNYHESRKGHRDFVWVLSRSMVLTGEAKTAVENYLIGSPVVDSQKLVYSDFSEAACKVNN
B8: BBP mutein CD4-2C3-K20 (designed binder)
chain: DVYHDGACPEVKPVDNFDWSQYHGKWWEVAKYPNTSEHSGKCGWAEYTPEGKSVKVSNYHVIKKKERFIEGTAYSAGDSKIGKIYHSLTSVGKTKENVFNVLSTDNKNYIIGYYCSYKEKTKGHGDFVWVLSRSMVLTGEAKTAVENYLIGSPVVDSQKLVYSDFSEAACKVNN
B9: BBP mutein CD154-13-10-4 (designed binder)
chain: DVYHDGACPEVKPVDNFDWSQYHGKWWEVAKYPNSHETGGKCGWAEYTPEGKSVKVSNYHVITPHERFIEGTAYPVGDSKIGKIYHSLTWIGTTKENVFNVLSTDNKNYIIGYYCSYSEAGKGHQDFVWVLSRSMVLTGEAKTAVENYLIGSPVVDSQKLVYSDFSEAACKVNN
B10: BBP mutein CD4-2G3-L22 (designed binder)
chain: DVYHDGACPEVKPVDNFDWSQYHGKWWEVAKYPNIAELGGKCGWAEYTPEGKSVKVSNYHVINWNEMFIEGTAYPVGDSKIGKISHSLTKVGQTKENVFNVLSTDNKNYIIGYYCQYSERAKGHLDFVWVLSRSMVLTGEAKTAVENYLIGSPVVDSQKLVYSDFSEAACKVNN

Legend:
RNaseB [1] = target: T1, RNaseB; assay: ELISA, RNaseB coated on plate, anti-T7-HRP detection
Protocol: (§1) Afterwards, the wells were washed and blocked as described in Example 8.
(§2) Then, a dilution series of the BBP muteins from Example 11 in SA-buffer was prepared in PBST starting from 1000 nM concentration and incubated for 1 h at room temperature. Subsequently, plates were washed again five times, anti-T7 monoclonal antibody-HRP-conjugate was added and incubated for 1 hour at room temperature followed by washing and addition of fluorogenic HRP-substrate QuantaBlu™ as described in Example 8. After 10 minutes at room temperature fluorescence was excited at a wavelength of 320 nm (±12.5 nm) and measured at 430 nm (±17.5 nm) in a GENiosPlus plate reader.

type I horse ferritin [2] = target: T3, type I horse ferritin (horse, UniProt P02791 2-175; Q8MIP0 2-182, limits assumed); assay: high-throughput ELISA screening, crude cell extract, ferritin or aldolase coated on plate, anti-T7-HRP detection; Fer-N22 is one of the clones taken on from these 14
T3 construct: the natural protein is a shell of light and heavy chains
T3 sequence (P02791 2-175 limits assumed, chain 1 of 2): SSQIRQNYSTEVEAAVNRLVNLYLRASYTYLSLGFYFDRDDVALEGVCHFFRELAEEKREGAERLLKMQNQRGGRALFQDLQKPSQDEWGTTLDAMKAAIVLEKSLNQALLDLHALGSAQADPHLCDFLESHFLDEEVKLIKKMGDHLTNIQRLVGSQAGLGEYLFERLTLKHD
T3 sequence (Q8MIP0 2-182 limits assumed, chain 2 of 2): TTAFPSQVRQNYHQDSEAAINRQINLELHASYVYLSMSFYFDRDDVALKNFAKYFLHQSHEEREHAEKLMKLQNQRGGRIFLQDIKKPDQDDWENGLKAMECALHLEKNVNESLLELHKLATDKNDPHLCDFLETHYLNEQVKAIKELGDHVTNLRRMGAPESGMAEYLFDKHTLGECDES
Protocol: (§3) For the detection of binding, these cell extracts were tested for their reactivity on the prescribed target type I horse ferri tin as well as the unrelated control protein aldolase in ELISA experiments. Therefore, wells of black Fluotrac 600 ELISA plates (Greiner; 384 well) were coated overnight with 20 μl of a solution of ferritin (Sigma) or aldolase (Roche) at 4° C., each at a concentration of 20 μg/ml in PBS. Plates were washed five times with 100 μl PBST/0.05 per well with an automated ELISA plate washer (Molecular Devices) leaving a residual volume of 10 μl of the washing buffer in each well after the last washing step. Residual binding sites were blocked by incubation with 100 μl PBST/0.05 containing 2% w/v BSA for 2 h at room temperature. Afterwards, plates were again washed five times as described above.
(§4) For complex formation between the BBP muteins and the immobilized proteins, the wells were incubated with 10 μl of the blocked cell extract from above for 1 hour at room temperature. […] After 60 minutes at room temperature fluorescence was excited at a wavelength of 320 nm (±12.5 nm) and measured at 430 nm (±17.5 nm) in a GENiosPlus plate reader (Tecan).

type I horse ferritin [3] = target: T3, type I horse ferritin; assay: ELISA, ferritin coated on plate, mutein titrated from 1000 nM, anti-T7-HRP detection, apparent KD from curve fit
Protocol: as §1, §2
The resulting binding curves were fitted by non-linear least squares regression as described in Example 8 and are depicted in FIG. 8. The values obtained for the apparent dissociation constants of the complexes between the BBP muteins and the prescribed target ferritin are summarized in Table 5.

BSA = target: T4, BSA (UniProt P02769 25-607); assay: ELISA: BSA coated on the plate as control, BBP mutein titrated 0-2000 nM, detected with anti-Strep-tag II antibody-HRP, fluorescence (Example 17)
T4 construct: Control protein coated on the ELISA plate; also called unrelated control protein BSA
T4 sequence (P02769 25-607 limits assumed): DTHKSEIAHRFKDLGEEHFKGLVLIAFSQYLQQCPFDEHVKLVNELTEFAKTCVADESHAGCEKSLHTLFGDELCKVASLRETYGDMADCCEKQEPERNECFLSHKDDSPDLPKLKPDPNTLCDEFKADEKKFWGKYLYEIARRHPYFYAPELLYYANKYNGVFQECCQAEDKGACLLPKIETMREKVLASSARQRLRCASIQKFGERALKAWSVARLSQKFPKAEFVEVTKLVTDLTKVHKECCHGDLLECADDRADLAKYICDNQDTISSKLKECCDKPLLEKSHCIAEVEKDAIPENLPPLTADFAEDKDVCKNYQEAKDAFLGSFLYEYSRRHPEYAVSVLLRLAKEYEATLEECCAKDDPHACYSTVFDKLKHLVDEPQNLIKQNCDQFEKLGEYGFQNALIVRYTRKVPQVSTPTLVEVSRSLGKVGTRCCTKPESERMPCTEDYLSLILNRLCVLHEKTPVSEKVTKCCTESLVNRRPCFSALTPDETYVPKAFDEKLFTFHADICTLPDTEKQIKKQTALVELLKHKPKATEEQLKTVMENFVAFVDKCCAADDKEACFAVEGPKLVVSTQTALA

[4] = target: T2, extracellular domain of human CD154; assay: ELISA, CD154 coated on plate, mutein titrated from 2000 nM, anti-Strep-tag II-HRP detection, apparent KD from curve fit
Protocol: (§5) After washing five times with 100 μl PBST/0.05 per well employing an automated ELISA plate washer, the wells were filled with 100 μl PBST containing 3% w/v non-fat dry milk powder (Vitalia), in order to saturate unspecific binding sites and incubated for one hour at room temperature. After blocking, the microtiter plate was washed two times with 100 μl PBST/0.05 as described above.
Then a dilution series of the muteins from Example 16 in SA-buffer was prepared in PBST starting from 2000 nM concentration and incubated for 1 h at room temperature. Subsequently, plates were washed again five times like above and 20 μl of an anti-Strep-tag® II monoclonal antibody-HRP-conjugate (IBA), diluted 1:1000 in PBST was added to each well and incubated for 1 hour at room temperature. Plates were again washed five times as described above and 20 μl of the fluorogenic HRP-substrate QuantaBlu™ (diluted as described by the manufacturer) was added to detect bound BBP muteins by means of the attached anti-Strep-tag® II monoclonal antibody-HRP-conjugate. After 10 minutes at room temperature fluorescence was excited at a wavelength of 320 nm (±12.5 nm) and measured at 430 nm (±17.5 nm) in a GENiosPlus plate reader.
The resulting binding curves were fitted by non-linear least squares regression as described in Example 8 and are depicted in FIG. 11. […]

[5] = target: fusion construct of the CD4 V-domain and CD4 D1-domain of the human CD4 coreceptor (amino acids 1-184) with … (human, UniProt P01730 26-209); assay: ELISA, mutein coated on plate, digoxigenin-conjugated CD4-VD1 titrated from 2000 nM, anti-digoxigenin Fab-AP detection, apparent KD from curve fit
Protocol: as §5
(§6) Then a dilution series of conjugates of digoxigenin and either the prescribed protein target CD4-VD1 or the unrelated control protein RNaseB, both produced as described in Example 25, was prepared in PBST starting from 2000 nM concentration and incubated for 1 h at room temperature. Subsequently, plates were washed again five times like above and 20 μl of an anti-digoxigenin-Fab-fragment-alkaline phosphatase-conjugate (Roche), diluted 1:1000 in PBST was added to each well and incubated for 1 hour at room temperature. Plates were washed again five times as described above and 20 μl of the fluorogenic substrate AttoPhos (Roche; prepared as described by the manufacturer) was added to detect bound CD4-VD1 by means of the attached digoxigenin groups. After 10 minutes at room temperature fluorescence was excited at a wavelength of 430 nm (±17.5 nm) and measured at 535 nm (÷12.5 nm) in a GENiosPlus plate reader.
The resulting binding curves were fitted by non-linear least squares regression as described in Example 8 and are depicted in FIG. 14 and FIG. 15. The values obtained for the apparent dissociation constants of the complexes between the BBP muteins CD4-2C3-K20, CD4-2C3-N22, CD4-2G3-H22, CD4-2G3-L22, CD4-7B4-K21, CD4-7B4-K23, and CD4-7B4-N14 and the prescribed target protein CD4-VD1 as well as for the complexes between the BBP muteins and the control protein RNaseB are summarized in Table 11.

RNaseB [6] = target: T1, RNaseB; assay: ELISA: BBP mutein coated on the plate, digoxigenin-conjugated RNaseB titrated 0-2000 nM, detected with anti-digoxigenin Fab-alkaline phosphatase, fluorescence (Example 27)
Protocol: as §5, §6

type I horse ferritin [7] = target: T3, type I horse ferritin; assay: high-throughput ELISA screening, crude cell extract, ferritin or aldolase coated on plate, anti-T7-HRP detection; Fer-I21 is one of the clones taken on from these 14
Protocol: as §3, §4

| Binder | Kd [5] [nM] | binding result (RNaseB [6]) | also measured |
| --- | --- | --- | --- |
| B1 | – | – | binding result (RNaseB [1]): no binding (tested: dilution series starting from 1000 nM); signal-to-control ratio (ferritin against aldolase) (type I horse ferritin [2]): > 5; Kd (type I horse ferritin [3]): 45 nM |
| B2 | – | – | binding result (BSA): no binding (tested: 2000 nM); Kd [4]: 89 nM |
| B3 | 169 | no binding (tested: 2000 nM) | – |
| B4 | 105 | no binding (tested: 2000 nM) | – |
| B5 | – | – | binding result (RNaseB [1]): no binding (tested: dilution series starting from 1000 nM); Kd (type I horse ferritin [3]): 26 nM; signal-to-control ratio (ferritin against aldolase) (type I horse ferritin [7]): > 5 |
| B6 | 185 | no binding (tested: 2000 nM) | – |
| B7 | 177 | no binding (tested: 2000 nM) | – |
| B8 | 136 | no binding (tested: 2000 nM) | – |
| B9 | – | – | binding result (BSA): no binding (tested: 2000 nM); Kd [4]: 174 nM |
| B10 | 200 | no binding (tested: 2000 nM) | – |
